Laboratory results as given in patent US20190309074A1, “DEGLYCOSYLATED ANTIBODY SPECIFICALLY BINDING TO CLEC14A AND USES THEREOF” (WOORI TECHNOLOGIES CORPORATION, priority 2016, published 2019).

T1: hclec14a-CTLD-Fc (human, UniProt Q86T13 31-172, limits assumed)
T1 construct: domain: C-type lectin-like domain (CTLD); also called human clec14a-CTLD-Fc; human CTLD; not shown: Fc
T1 sequence (looked up): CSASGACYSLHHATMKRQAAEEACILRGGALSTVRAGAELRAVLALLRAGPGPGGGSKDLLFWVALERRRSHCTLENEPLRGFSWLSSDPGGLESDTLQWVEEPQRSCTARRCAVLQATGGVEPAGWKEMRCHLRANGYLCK

T2: mclec14a-CTLD-Fc (mouse, UniProt Q8VCP9 31-172, limits assumed)
T2 construct: domain: C-type lectin-like domain (CTLD); also called mouse clec14a-CTLD-Fc; mouse CTLD; not shown: Fc
T2 sequence (looked up): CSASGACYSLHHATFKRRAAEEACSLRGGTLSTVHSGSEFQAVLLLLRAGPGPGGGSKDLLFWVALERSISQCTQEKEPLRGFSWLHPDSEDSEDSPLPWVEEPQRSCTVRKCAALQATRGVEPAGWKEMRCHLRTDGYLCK


What was measured:
hclec14a-CTLD-Fc = target: T1, hclec14a-CTLD-Fc; assay: ELISA on hclec14a-CTLD-Fc
mclec14a-CTLD-Fc = target: T2, mclec14a-CTLD-Fc; assay: ELISA on mclec14a-CTLD-Fc
GFP-transfected HUVECs = assay: IncuCyte real-time VEGF-dependent angiogenesis assay; type: cell-based, human; conditions: for anti-angiogenesis activity (tube length and branch point): 20 ug/ml; for changes in tube length (progression of angiogenesis): representative images
Method: In order to identify inhibitory activity of optimized candidate antibodies against angiogenesis dependent upon VEGF, which is a key factor of angiogenesis, anti-angiogenesis activity was comparatively analyzed using an IncuCyte FLR live content imaging system (Essen Bioscience Inc.) providing real-time analysis of angiogenesis. First, GFP-transfected HUVECs were seeded on a […] plate, were treated with 36 types of antibodies at a concentration of 20 ug/ml and in vitro efficacy was then compared. At this time, optimized antibodies were comparatively analyzed in terms of efficacy with parental IgG (parent antibody: clone 1 of WO 2013/187556), deglyco C1 and bevacizumab (Avastin) as positive control groups.

[1] = aggregation and purification amounts of deglycosylated antibodies, before and after φ; type: physicochemical; conditions: based on 100 ml culture
HUVEC migration = assay: IncuCyte HUVEC migration assay; type: cell-based, human; conditions: 20 ug/ml
Method: In order to analyze in vitro efficacies of the optimized candidate antibodies on endothelial migration, which is another function of angiogenesis, HUVEC migration assay was conducted using an IncuCyte FLR live content imaging system (Essen Bioscience Inc). At this time, regarding a wound, a uniform wound was created using a wound maker commercially available from Incucyte and was treated with 20 ug/ml of respective antibodies, and inhibitory activity against migration was comparatively evaluated.

HUVEC cells = assay: EGM-dependent HUVEC tube formation; type: cell-based, human; conditions: 20 ug/ml
Description: EGM is a type of complex including a variety of angiogenesis factors, which has been used to induce strong angiogenesis using vascular endothelial cells.

[2] = tested on: HUVECs (human umbilical vein endothelial cells); assay: flow cytometry cross-species reactivity; type: cell-based; conditions: 20 ug/ml
Method: (§1) In order to identify cross-species reactivity of the optimized antibodies, HUVECs (human umbilical vein endothelial cells) and MAECs (mouse aortic endothelial cells) were each cultured, the two cell groups were treated with 20 ug/ml of the parent antibody (original C1), deglyco C1, and clones 1, 13 and 16, and whether or not binding ability exists on the surface of two types of cells was identified by flow cytometry.

[3] = tested on: MAECs (mouse aortic endothelial cells); assay: flow cytometry cross-species reactivity; type: cell-based; conditions: 20 ug/ml
Method: as §1

| binding result (hclec14a-CTLD-Fc) | binding result (mclec14a-CTLD-Fc) | Molecule | anti-angiogenesis activity (tube length and branch point) (GFP-transfected HUVECs) | changes in tube length (progression of angiogenesis) (GFP-transfected HUVECs) | Final um, After φ [1] [mg] | Final um, Before φ [1] [mg] | Fraction1, After φ [1] [mg] | Fraction1, Before φ [1] [mg] | Fraction2, After φ [1] [mg] | Fraction2, Before φ [1] [mg] | Fraction3, After φ [1] [mg] | Fraction3, Before φ [1] [mg] | Fraction4, After φ [1] [mg] | Fraction4, Before φ [1] [mg] | endothelial migration inhibitory activity (HUVEC migration) | suppression of EGM-dependent tube formation (HUVEC cells) | binding to HUVEC surface [2] | binding to MAEC surface [3] |
| --- | --- | --- | --- | --- | --- | --- | --- | --- | --- | --- | --- | --- | --- | --- | --- | --- | --- | --- |
| binds | binds | deglyco C2 IgG (antibody, V domains shown, IgG expressed in HEK293 cells; also called Deg C2) VH: EVQLVESGGGLVQPGGSLRLSCAVSGFTFSGYDMSWIRQAPGKGLEWVAGIYPDGGNTYYADSVKGRFTISRDDSKNTFYLQMNSLRAEDTAVYYCARGATWWVLGPFDYWGQGTLVTVSS VL: DIQLTQSPSSLSASVGDRVTITCTGSSSNIGATAVTWYQQKPGKAPKLLIYADSHRPSGVPSRFSGSGSGTDFTLTISSLQPEDFATYYCGAWDDSLSGYVFGQGTKVEIKR | – | – | – | – | – | – | – | – | – | – | – | – | – | – | – | – |
| – | – | Opti 3: IgG, heavy chain CDR3 GATWWVLGAFDY (SEQ ID No: 27), VL of Deg C1 (antibody, V domains shown) VH: EVQLVESGGGLVQPGGSLRLSCAVSGFTFSGYDMSWIRQAPGKGLEWVAGIYPDGGNTYYADSVKGRFTISRDDSKNTFYLQMNSLRAEDTAVYYCARGATWWVLGAFDYWGQGTLVTVSS VL: DIQLTQSPSSLSASVGDRVTITCTGSSSNIGRCGVTWYQQKPGKAPKLLIYADSHRPSGVPSRFSGSGSGTDFTLTISSLQPEDFATYYCGAWDDSLSGYVFGQGTKVEIKR | potent efficacy | same efficacy as Suramin and Avastin | – | – | – | – | – | – | – | – | – | – | – | – | – | – |
| – | – | Deglyco-C4: deglycosylated clone 1 IgG; light chain CDR1 TGSSSNIGAVVVT (SEQ ID NO: 5) (antibody, V domains shown) VH: EVQLVESGGGLVQPGGSLRLSCAVSGFTFSGYDMSWIRQAPGKGLEWVAGIYPDGGNTYYADSVKGRFTISRDDSKNTFYLQMNSLRAEDTAVYYCARGATWWVLGPFDYWGQGTLVTVSS VL: DIQLTQSPSSLSASVGDRVTITCTGSSSNIGAVVVTWYQQKPGKAPKLLIYADSHRPSGVPSRFSGSGSGTDFTLTISSLQPEDFATYYCGAWDDSLSGYVFGQGTKVEIKR | – | – | 1.442 | 1.390 | 0.015 | 0.019 | 1.126 | 1.135 | 0.251 | 0.255 | 0.050 | 0.057 | – | – | – | – |
| – | – | Opti 13: IgG, heavy chain CDR3 GAMEQVLGPFDL (SEQ ID No: 37), VL of Deg C1 (antibody, V domains shown) VH: EVQLVESGGGLVQPGGSLRLSCAVSGFTFSGYDMSWIRQAPGKGLEWVAGIYPDGGNTYYADSVKGRFTISRDDSKNTFYLQMNSLRAEDTAVYYCARGAMEQVLGPFDLWGQGTLVTVSS VL: DIQLTQSPSSLSASVGDRVTITCTGSSSNIGRCGVTWYQQKPGKAPKLLIYADSHRPSGVPSRFSGSGSGTDFTLTISSLQPEDFATYYCGAWDDSLSGYVFGQGTKVEIKR | – | – | – | – | – | – | – | – | – | – | – | – | same endothelial migration inhibitory activity as parent antibody (original C1), deglyco C1 IgG, and Avastin | efficiently suppressing angiogenesis | had cross-species reactivity | had cross-species reactivity |
| – | – | Opti 16: IgG, heavy chain CDR3 GARRQVLGCFDF (SEQ ID No: 40), VL of Deg C1 (antibody, V domains shown) VH: EVQLVESGGGLVQPGGSLRLSCAVSGFTFSGYDMSWIRQAPGKGLEWVAGIYPDGGNTYYADSVKGRFTISRDDSKNTFYLQMNSLRAEDTAVYYCARGARRQVLGCFDFWGQGTLVTVSS VL: DIQLTQSPSSLSASVGDRVTITCTGSSSNIGRCGVTWYQQKPGKAPKLLIYADSHRPSGVPSRFSGSGSGTDFTLTISSLQPEDFATYYCGAWDDSLSGYVFGQGTKVEIKR | potent efficacy | same efficacy as Suramin and Avastin | – | – | – | – | – | – | – | – | – | – | same endothelial migration inhibitory activity as parent antibody (original C1), deglyco C1 IgG, and Avastin | efficiently suppressing angiogenesis | had cross-species reactivity | had cross-species reactivity |
| – | – | Deglyco-C3: deglycosylated clone 1 IgG; light chain CDR1 TGSSSNIGWSNVT (SEQ ID NO: 4) (antibody, V domains shown) VH: EVQLVESGGGLVQPGGSLRLSCAVSGFTFSGYDMSWIRQAPGKGLEWVAGIYPDGGNTYYADSVKGRFTISRDDSKNTFYLQMNSLRAEDTAVYYCARGATWWVLGPFDYWGQGTLVTVSS VL: DIQLTQSPSSLSASVGDRVTITCTGSSSNIGWSNVTWYQQKPGKAPKLLIYADSHRPSGVPSRFSGSGSGTDFTLTISSLQPEDFATYYCGAWDDSLSGYVFGQGTKVEIKR | – | – | 2.768 | 2.918 | 0.012 | 0.014 | 2.109 | 2.209 | 0.520 | 0.580 | 0.127 | 0.129 | – | – | – | – |
| – | – | Opti 1: IgG, heavy chain CDR3 GAATKVLGKFDC (SEQ ID No: 25), VL of Deg C1 (antibody, V domains shown) VH: EVQLVESGGGLVQPGGSLRLSCAVSGFTFSGYDMSWIRQAPGKGLEWVAGIYPDGGNTYYADSVKGRFTISRDDSKNTFYLQMNSLRAEDTAVYYCARGAATKVLGKFDCWGQGTLVTVSS VL: DIQLTQSPSSLSASVGDRVTITCTGSSSNIGRCGVTWYQQKPGKAPKLLIYADSHRPSGVPSRFSGSGSGTDFTLTISSLQPEDFATYYCGAWDDSLSGYVFGQGTKVEIKR | potent efficacy | same efficacy as Suramin and Avastin | – | – | – | – | – | – | – | – | – | – | same endothelial migration inhibitory activity as parent antibody (original C1), deglyco C1 IgG, and Avastin | efficiently suppressing angiogenesis | had cross-species reactivity | had cross-species reactivity |
| – | – | Deglyco-C2: deglycosylated clone 1 IgG; light chain CDR1 TGSSSNIGATAVT (SEQ ID NO: 3) (antibody, V domains shown) VH: EVQLVESGGGLVQPGGSLRLSCAVSGFTFSGYDMSWIRQAPGKGLEWVAGIYPDGGNTYYADSVKGRFTISRDDSKNTFYLQMNSLRAEDTAVYYCARGATWWVLGPFDYWGQGTLVTVSS VL: DIQLTQSPSSLSASVGDRVTITCTGSSSNIGATAVTWYQQKPGKAPKLLIYADSHRPSGVPSRFSGSGSGTDFTLTISSLQPEDFATYYCGAWDDSLSGYVFGQGTKVEIKR | – | – | 5.018 | 5.032 | 0.018 | 0.019 | 3.702 | 3.718 | 1.110 | 1.113 | 0.198 | 0.201 | – | – | – | – |
| binds | binds | deglyco C4 IgG (antibody, V domains shown, IgG expressed in HEK293 cells; also called Deg C4) VH: EVQLVESGGGLVQPGGSLRLSCAVSGFTFSGYDMSWIRQAPGKGLEWVAGIYPDGGNTYYADSVKGRFTISRDDSKNTFYLQMNSLRAEDTAVYYCARGATWWVLGPFDYWGQGTLVTVSS VL: DIQLTQSPSSLSASVGDRVTITCTGSSSNIGAVVVTWYQQKPGKAPKLLIYADSHRPSGVPSRFSGSGSGTDFTLTISSLQPEDFATYYCGAWDDSLSGYVFGQGTKVEIKR | – | – | – | – | – | – | – | – | – | – | – | – | – | – | – | – |
| binds | binds | deglyco C3 IgG (antibody, V domains shown, IgG expressed in HEK293 cells; also called Deg C3) VH: EVQLVESGGGLVQPGGSLRLSCAVSGFTFSGYDMSWIRQAPGKGLEWVAGIYPDGGNTYYADSVKGRFTISRDDSKNTFYLQMNSLRAEDTAVYYCARGATWWVLGPFDYWGQGTLVTVSS VL: DIQLTQSPSSLSASVGDRVTITCTGSSSNIGWSNVTWYQQKPGKAPKLLIYADSHRPSGVPSRFSGSGSGTDFTLTISSLQPEDFATYYCGAWDDSLSGYVFGQGTKVEIKR | – | – | – | – | – | – | – | – | – | – | – | – | – | – | – | – |
